Measured values reported in paper PMC4600729.

Key:
[1] = molecular target: T1, taxol-stabilized microtubules (polymer of alpha/beta-tubulin), immobilized; experiment: single-molecule TIRF microscopy; spiking experiment, crowded conditions: pM GFP-labelled motor mixed with 15-25 nM unlabelled motor; binding durations at plus ends of taxol-stabilized microtubules
[2] = molecular target: dynamic microtubules growing from surface-immobilized GMPCPP seeds (polymer of alpha/beta-tubulin); experiment: TIRF microscopy; GFP-labelled motors (20-30 nM, or 50 pM for single molecules) on microtubules growing from immobilized GMPCPP seeds in 10 or 20 μM unlabelled tubulin, 1 mM ATP
Sequence of dynamic microtubules growing from surface-immobilized GMPCPP seeds (polymer of alpha/beta-tubulin) (chain, as listed by the source, chain 1 of 2): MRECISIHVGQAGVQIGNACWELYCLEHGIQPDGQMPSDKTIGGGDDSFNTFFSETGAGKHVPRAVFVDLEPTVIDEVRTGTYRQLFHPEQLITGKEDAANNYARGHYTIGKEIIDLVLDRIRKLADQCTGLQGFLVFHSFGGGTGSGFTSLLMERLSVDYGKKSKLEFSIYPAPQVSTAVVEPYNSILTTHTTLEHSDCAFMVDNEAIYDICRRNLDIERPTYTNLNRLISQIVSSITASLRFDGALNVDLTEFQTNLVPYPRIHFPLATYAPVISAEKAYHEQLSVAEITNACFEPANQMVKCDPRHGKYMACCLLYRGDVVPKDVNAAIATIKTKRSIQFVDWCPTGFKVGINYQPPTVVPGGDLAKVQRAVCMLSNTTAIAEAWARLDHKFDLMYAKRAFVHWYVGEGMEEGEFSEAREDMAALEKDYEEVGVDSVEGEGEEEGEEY
Sequence of dynamic microtubules growing from surface-immobilized GMPCPP seeds (polymer of alpha/beta-tubulin) (chain, as listed by the source, chain 2 of 2): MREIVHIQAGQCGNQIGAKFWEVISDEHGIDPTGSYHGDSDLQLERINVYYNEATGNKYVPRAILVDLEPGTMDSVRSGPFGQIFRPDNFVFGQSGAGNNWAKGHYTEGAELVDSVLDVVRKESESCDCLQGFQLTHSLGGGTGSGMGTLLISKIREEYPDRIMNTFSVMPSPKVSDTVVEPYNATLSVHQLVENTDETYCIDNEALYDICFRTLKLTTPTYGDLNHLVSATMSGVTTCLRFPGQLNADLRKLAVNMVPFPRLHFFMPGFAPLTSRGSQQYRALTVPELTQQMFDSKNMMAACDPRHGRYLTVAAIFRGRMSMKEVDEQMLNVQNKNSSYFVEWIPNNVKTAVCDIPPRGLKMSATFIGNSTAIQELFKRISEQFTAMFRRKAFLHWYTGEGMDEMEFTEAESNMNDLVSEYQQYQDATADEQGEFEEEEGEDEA

[3] = molecular target: T1, taxol-stabilized microtubules (polymer …); experiment: single-molecule TIRF microscopy; GFP-labelled motor (25 pM) in 1 mM ATP on immobilized taxol-stabilized microtubules; pause lifetimes at plus ends, exponential fit; BRB80 pH 6.8

T1 sequence (P68363 whole entry, chain 1 of 2): as the sequence (chain, as listed by the source, chain 1 of 2) above
T1 sequence (A8K068 whole entry, chain 2 of 2, further chain): as the sequence (chain, as listed by the source, chain 2 of 2) above

end duration at plus ends under crowded conditions [1]: 2.61 s | mean residence time at dynamic plus ends [2]: 7.04 s | mean pause duration at plus ends [3]: 7.2 s
B1: Kin5_14GFP (dimeric kinesin-5 as Kin5_18 but with the neck linker shortened to 14 residues, GFP-tagged) (protein)
chain: MSSQNSFMASKKEDKGKNIQVVVRCRPFNQLERKASSHSVLECDSQRKEVYVRTGEVNDKLGKKTYTFDMVFGPAAKQIEVYRSVVCPILDEVIMGYNCTIFAYGQTGTGKTFTMEGERSSDEEFTWEQDPLAGIIPRTLHQIFEKLSENGTEFSVKVSLLEIYNEELFDLLSPSPDVGERLQMFDDPRNKRGVIIKGLEEISVHNKDEVYHILERGAARRKTASTLMNAYSSRSHSVFSVTIHMKETTVDGEELVKIGKLNLVDLAGSENIGRSGAVDKRAREAGNINQSLLTLGRVITALVERTPHIPYRESKLTRILQDSLGGRTKTSIIATVSPASINLEETVSTLDYANRAKSIMNKPEVNQKLTAEEWKRRYEKEKEKNARLKGKVEKLEIELARWRAGETVKAEEQINMEDLMEASTPNLEVEAAQTAAAEAALAAQRTALANMSASVAVNEQARLATECERLYQQLDDKDEEINQQSQYAEQLKEQVMEQEELIANARREYETLQSEMARIQQENESAKEEVKEVLQALEELAVNYDQKSQEIDNKNKDIDALNEELQQKQSVFNAASTELQQLKDM
modifications: not checked
